According to US20220372155A1 (LYVGEN BIOPHARMA, published 2022):
Values belong to the binder of their own block, whether it stands above or below them.

Assays:
[1] = target: T1, Human CD40 ECD protein (mouse IgG2a Fc tag) (human, UniProt P25942 21-193); assay: bridging ELISA, coated B7H4, soluble CD40 ECD-mFc
T1 construct: extracellular domain; also called Human CD40-msFc; human recombinant CD40; not shown: mouse IgG2a Fc tag
Method: Anti-B7H4/CD40 bi-specific antibodies were analyzed by ELISA for their simultaneous binding to recombinant human B7H4 and human CD40. Briefly, human B7H4 protein was diluted and coated onto an ELISA plate with a volume of […] by incubation at 4° C. overnight. The next day, the plate was blocked by PBST-BSA buffer, then serially diluted samples of anti-B7H4/CD40 bi-specific antibodies were pipetted into appropriate wells at 50 μL/well, and the plate was incubated for 1 h followed by Washing. Human CD40 ECD protein (mouse IgG2a Fc tag) was added into the plate at 50 μL/well. After 1-hour incubation at room temperature, HRP-conjugated anti-mouse IgG (H+L) antibody was added into the plate at 100 μL/well. The plate was incubated for 1 hour at room temperature followed by washing. TMB substrate solution was added at 100 μL/well and the color development was stopped by adding 100 uL/well Stop Solution (2N H2SO4). Absorbance at 450 nm and 620 nm was read by Tecan F200 Pro plate reader. GraphPad 7.0, “[Agonist] vs. response—Variable slope (four parameters)” was used to plot the binding data and calculate binding EC50 values.

[2] = target: T2, human B7H4 expressed on CHO cells (human, UniProt Q7Z7D3 25-282); assay: FACS, CHO cells
T2 construct: whole, on cells; also called VCTN1
T2 sequence (looked up): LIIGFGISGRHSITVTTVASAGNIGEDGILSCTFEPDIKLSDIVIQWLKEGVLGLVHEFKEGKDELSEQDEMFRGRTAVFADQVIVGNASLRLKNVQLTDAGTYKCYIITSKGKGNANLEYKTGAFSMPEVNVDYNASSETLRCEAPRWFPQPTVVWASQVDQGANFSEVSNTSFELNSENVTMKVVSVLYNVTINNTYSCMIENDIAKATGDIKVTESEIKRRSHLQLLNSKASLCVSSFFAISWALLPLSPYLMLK

[3] = target: T3, human CD40 expressed on CHO cells (human, UniProt P25942 21-277); assay: FACS, CHO cells
T3 construct: whole, on cells; also used for the reporter cells over-expressing human CD40; also called cellular CD40; CHO-CD40 cells

[4] = target: T4, human PD-L1 expressed on CHO cells (human, UniProt Q9NZQ7 19-290); assay: FACS, CHO cells
T4 construct: whole, on cells; also used for human PD-L1 on Raji cells in the reporter assay; also called cell surface PD-L1; Raji-PD-L1 cells
T4 sequence (Q9NZQ7 19-290): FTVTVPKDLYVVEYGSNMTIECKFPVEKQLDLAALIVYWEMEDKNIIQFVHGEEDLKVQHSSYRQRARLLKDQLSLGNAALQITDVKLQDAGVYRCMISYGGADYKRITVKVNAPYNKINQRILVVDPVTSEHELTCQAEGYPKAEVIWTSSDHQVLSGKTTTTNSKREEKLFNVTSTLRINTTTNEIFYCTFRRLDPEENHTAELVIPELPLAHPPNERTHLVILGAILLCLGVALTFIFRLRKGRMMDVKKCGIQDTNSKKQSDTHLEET

T1 sequence (P25942 21-193): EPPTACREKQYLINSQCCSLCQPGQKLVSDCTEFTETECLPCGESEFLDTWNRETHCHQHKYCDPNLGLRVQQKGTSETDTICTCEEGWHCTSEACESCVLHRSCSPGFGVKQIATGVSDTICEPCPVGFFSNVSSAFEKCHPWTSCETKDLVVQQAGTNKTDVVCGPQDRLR
T3 sequence (P25942 21-277): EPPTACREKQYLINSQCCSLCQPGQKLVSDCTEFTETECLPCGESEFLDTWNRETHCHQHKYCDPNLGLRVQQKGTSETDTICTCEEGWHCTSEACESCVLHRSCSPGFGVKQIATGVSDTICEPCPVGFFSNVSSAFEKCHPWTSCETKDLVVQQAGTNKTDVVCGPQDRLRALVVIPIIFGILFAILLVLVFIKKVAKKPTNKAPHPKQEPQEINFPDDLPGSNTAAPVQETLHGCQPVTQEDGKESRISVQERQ

B3: Ly479 (bispecific antibody, human IgG1, kappa)
heavy: EVQLVESGGDLVKPGGSLKLSCAASGFTFSSYGMSWVRQTPDKRLEWVAAISTGGSYTYYPDSVKGRFTISRDTATNTLYLQMSTLKSEDTAMYYCTRRGATGSWFAYWGQGTLVTVSAASTKGPSVFPLAPSSKSTSGGTAALGCLVKDYFPEPVTVSWNSGALTSGVHTFPAVLQSSGLYSLSSVVTVPSSSLGTQTYICNVNHKPSNTKVDKKVEPKSCDKTHTCPPCPAPELLGPSVFLFPPKPKDTLMISRTPEVTCVVVDVSHEDPEVKFNWYVDGVEVHNAKTKPREEQYNSTYRVVSVLTVLHQDWLNGKEYKCKVSNKALPAPIEKTISKAKGQPREPQVYTLPPSREEMTKNQVSLTCLVKGFYPSDIAVEWESNGQPENNYKTTPPVLDSDGSFFLYSKLTVDKSRWQQGNVFSCSVMHEALHNHYTQKSLSLSPGGGGGSGGGGSGGGGSGGGGSEVQLVESGGGLVQPGGSLRLSCAASGFTFTNYGLHWVRQAPGKGLEWVSSISPSGGVTYYRDSVKGRFTISRDNSKNTLYLQMNSLRAEDTAVYYCAKPFLGWGGANWIAHWGQGTLVTVSSGGGGSGGGGSGGGGSGGGGSDIQMTQSPSSLSASVGDRVTITCLASEDISNDLAWYQQKPGKAPKLLIYFVDRLLDGVPSRFSGSGSGTDFTLTISSLQPEDFATYYCQQSYKYPPTFGQGTKLEIK
light: DILMTQSPSSMSVSLGDTVSITCHASQGINNNIGWLQRKPGKSFKGLIYHGTNLEDGVPSRFSGSGSGADYSLTISSLESEDFADYYCVQYVQFPRTFGGGTKLEIKRTVAAPSVFIFPPSDEQLKSGTASVVCLLNNFYPREAKVQWKVDNALQSGNSQESVTEQDSKDSTYSLSSTLTLSKADYEKHKVYACEVTHQGLSSPVTKSFNRGEC
notes: Ly361 HC-TM559 scFv VH-VL + Ly361 LC
binding result [1]: binds | binding result [2]: binds | binding result [3]: binds

B6: Ly495 (bispecific antibody, human IgG1, kappa)
heavy: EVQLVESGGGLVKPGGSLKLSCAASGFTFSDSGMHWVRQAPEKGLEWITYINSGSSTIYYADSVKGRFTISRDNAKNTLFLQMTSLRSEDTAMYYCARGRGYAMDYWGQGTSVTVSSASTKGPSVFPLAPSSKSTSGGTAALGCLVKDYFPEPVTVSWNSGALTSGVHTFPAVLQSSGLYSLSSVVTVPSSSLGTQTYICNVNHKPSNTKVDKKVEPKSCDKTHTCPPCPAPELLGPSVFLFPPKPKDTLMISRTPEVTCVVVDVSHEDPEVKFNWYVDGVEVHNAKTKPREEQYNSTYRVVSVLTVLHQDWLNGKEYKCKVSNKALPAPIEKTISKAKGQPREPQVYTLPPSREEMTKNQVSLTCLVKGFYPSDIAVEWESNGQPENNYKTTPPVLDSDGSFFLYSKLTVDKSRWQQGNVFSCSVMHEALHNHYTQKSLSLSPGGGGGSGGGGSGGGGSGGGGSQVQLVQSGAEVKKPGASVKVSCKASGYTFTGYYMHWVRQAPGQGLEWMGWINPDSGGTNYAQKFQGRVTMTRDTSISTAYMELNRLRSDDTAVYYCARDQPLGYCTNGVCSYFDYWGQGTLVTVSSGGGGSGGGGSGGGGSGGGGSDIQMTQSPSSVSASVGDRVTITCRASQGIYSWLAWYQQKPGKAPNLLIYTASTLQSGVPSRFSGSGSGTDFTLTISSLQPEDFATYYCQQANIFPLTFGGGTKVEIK
light: EIVLTQSPTTMAASPGEKITIFCSASSSISSDFLHWYQQKPGFSPKLLIYRISNLASGVPARFSGSGSGTSYSLTIGTMEAEDVATYYCQQGSNVPRTFGGGTKLEIKRTVAAPSVFIFPPSDEQLKSGTASVVCLLNNFYPREAKVQWKVDNALQSGNSQESVTEQDSKDSTYSLSSTLTLSKADYEKHKVYACEVTHQGLSSPVTKSFNRGEC
notes: Ly366 HC (IgG1 mutated Fc)-Ly253 scFv VH-VL + Ly366 LC
binding result [1]: binds | binding result [2]: binds | binding result [3]: binds

B7: Ly491 (bispecific antibody, human IgG1, kappa)
heavy: EVQLVESGGGLVKPGGSLKLSCAASGFTFSDSGMHWVRQAPEKGLEWITYINSGSSTIYYADSVKGRFTISRDNAKNTLFLQMTSLRSEDTAMYYCARGRGYAMDYWGQGTSVTVSSASTKGPSVFPLAPSSKSTSGGTAALGCLVKDYFPEPVTVSWNSGALTSGVHTFPAVLQSSGLYSLSSVVTVPSSSLGTQTYICNVNHKPSNTKVDKKVEPKSCDKTHTCPPCPAPELLGPSVFLFPPKPKDTLMISRTPEVTCVVVDVSHEDPEVKFNWYVDGVEVHNAKTKPREEQYNSTYRVVSVLTVLHQDWLNGKEYKCKVSNKALPAPIEKTISKAKGQPREPQVYTLPPSREEMTKNQVSLTCLVKGFYPSDIAVEWESNGQPENNYKTTPPVLDSDGSFFLYSKLTVDKSRWQQGNVFSCSVMHEALHNHYTQKSLSLSPGGGGGSGGGGSGGGGSGGGGSEVQLVESGGGLVQPGGSLRLSCAASGFTFTNYGLHWVRQAPGKGLEWVSSISPSGGVTYYRDSVKGRFTISRDNSKNTLYLQMNSLRAEDTAVYYCAKPFLGWGGANWIAHWGQGTLVTVSSGGGGSGGGGSGGGGSGGGGSDIQMTQSPSSLSASVGDRVTITCLASEDISNDLAWYQQKPGKAPKLLIYFVDRLLDGVPSRFSGSGSGTDFTLTISSLQPEDFATYYCQQSYKYPPTFGQGTKLEIK
light: B6 light
notes: Ly366 HC (IgG1 mutated Fc)-TM559 scFv VH-VL + Ly366 LC
binding result [1]: binds | binding result [2]: binds | binding result [3]: binds

B8: Ly494 (bispecific antibody, human IgG1, kappa)
heavy: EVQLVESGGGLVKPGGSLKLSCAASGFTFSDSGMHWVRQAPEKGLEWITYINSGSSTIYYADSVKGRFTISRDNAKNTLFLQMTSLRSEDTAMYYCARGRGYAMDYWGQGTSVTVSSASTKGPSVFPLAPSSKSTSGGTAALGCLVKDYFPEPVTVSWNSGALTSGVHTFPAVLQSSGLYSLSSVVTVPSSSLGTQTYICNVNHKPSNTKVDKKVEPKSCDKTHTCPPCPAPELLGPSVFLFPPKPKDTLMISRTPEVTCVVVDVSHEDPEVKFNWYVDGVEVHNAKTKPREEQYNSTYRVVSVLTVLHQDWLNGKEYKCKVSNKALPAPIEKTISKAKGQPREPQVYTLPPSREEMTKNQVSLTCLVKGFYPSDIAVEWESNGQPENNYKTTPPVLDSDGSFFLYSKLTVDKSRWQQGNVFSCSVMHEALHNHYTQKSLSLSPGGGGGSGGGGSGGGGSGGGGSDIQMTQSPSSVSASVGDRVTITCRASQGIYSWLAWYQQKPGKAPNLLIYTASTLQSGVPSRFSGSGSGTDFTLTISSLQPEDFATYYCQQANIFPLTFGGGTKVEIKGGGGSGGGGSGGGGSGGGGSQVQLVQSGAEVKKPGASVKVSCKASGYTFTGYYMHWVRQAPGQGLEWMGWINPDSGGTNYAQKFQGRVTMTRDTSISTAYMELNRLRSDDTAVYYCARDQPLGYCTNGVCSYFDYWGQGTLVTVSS
light: B6 light
notes: Ly366 HC (IgG1 mutated Fc)-Ly253 scFv VL-VH + Ly366 LC
binding result [1]: binds | binding result [2]: binds | binding result [3]: binds

B10: Ly075 (antibody, human IgG1, kappa, V domains shown)
VH: QVQLVQSGAEVKKPGASVKVSCKASGYTFTDFWMSWVRQAPGQGLEWMGQIYPNTGTTHSNEKFKGRVTMTRDTSTSTVYMELSSLRSEDTAVYYCARSYHISTTPNWFAYWGQGTLVTVSS
VL: DIQMTQSPSSLSASVGDRVTITCKASQNVYKKLEWYQQKPGKVPKLLIYHTNILQTGVPSRFSGSGSGTDFTLTISSLQPEDVATYYCYQWNSGPTFGGGTKVEIKR
notes: humanized LYV5574, VH-1 and VL-1, human IgG1/kappa
binding result [4]: binds

Next, values leading:

binding result [1]: binds | binding result [2]: binds | binding result [3]: binds
B1: Ly478 (bispecific antibody, human IgG1, kappa)
heavy: EVQLVESGGDLVKPGGSLKLSCAASGFTFSSYGMSWVRQTPDKRLEWVAAISTGGSYTYYPDSVKGRFTISRDTATNTLYLQMSTLKSEDTAMYYCTRRGATGSWFAYWGQGTLVTVSAASTKGPSVFPLAPSSKSTSGGTAALGCLVKDYFPEPVTVSWNSGALTSGVHTFPAVLQSSGLYSLSSVVTVPSSSLGTQTYICNVNHKPSNTKVDKKVEPKSCDKTHTCPPCPAPELLGPSVFLFPPKPKDTLMISRTPEVTCVVVDVSHEDPEVKFNWYVDGVEVHNAKTKPREEQYNSTYRVVSVLTVLHQDWLNGKEYKCKVSNKALPAPIEKTISKAKGQPREPQVYTLPPSREEMTKNQVSLTCLVKGFYPSDIAVEWESNGQPENNYKTTPPVLDSDGSFFLYSKLTVDKSRWQQGNVFSCSVMHEALHNHYTQKSLSLSPGGGGGSGGGGSGGGGSGGGGSDIQMTQSPSSLSASVGDRVTITCLASEDISNDLAWYQQKPGKAPKLLIYFVDRLLDGVPSRFSGSGSGTDFTLTISSLQPEDFATYYCQQSYKYPPTFGQGTKLEIKGGGGSGGGGSGGGGSGGGGSEVQLVESGGGLVQPGGSLRLSCAASGFTFTNYGLHWVRQAPGKGLEWVSSISPSGGVTYYRDSVKGRFTISRDNSKNTLYLQMNSLRAEDTAVYYCAKPFLGWGGANWIAHWGQGTLVTVSS
light: B3 light
notes: Ly361 HC (IgG1 mutated Fc)-TM559 (printed TM599) scFv VL-VH + Ly361 LC

binding result [1]: binds | binding result [2]: binds | binding result [3]: binds
B2: Ly483 (bispecific antibody, human IgG1, kappa)
heavy: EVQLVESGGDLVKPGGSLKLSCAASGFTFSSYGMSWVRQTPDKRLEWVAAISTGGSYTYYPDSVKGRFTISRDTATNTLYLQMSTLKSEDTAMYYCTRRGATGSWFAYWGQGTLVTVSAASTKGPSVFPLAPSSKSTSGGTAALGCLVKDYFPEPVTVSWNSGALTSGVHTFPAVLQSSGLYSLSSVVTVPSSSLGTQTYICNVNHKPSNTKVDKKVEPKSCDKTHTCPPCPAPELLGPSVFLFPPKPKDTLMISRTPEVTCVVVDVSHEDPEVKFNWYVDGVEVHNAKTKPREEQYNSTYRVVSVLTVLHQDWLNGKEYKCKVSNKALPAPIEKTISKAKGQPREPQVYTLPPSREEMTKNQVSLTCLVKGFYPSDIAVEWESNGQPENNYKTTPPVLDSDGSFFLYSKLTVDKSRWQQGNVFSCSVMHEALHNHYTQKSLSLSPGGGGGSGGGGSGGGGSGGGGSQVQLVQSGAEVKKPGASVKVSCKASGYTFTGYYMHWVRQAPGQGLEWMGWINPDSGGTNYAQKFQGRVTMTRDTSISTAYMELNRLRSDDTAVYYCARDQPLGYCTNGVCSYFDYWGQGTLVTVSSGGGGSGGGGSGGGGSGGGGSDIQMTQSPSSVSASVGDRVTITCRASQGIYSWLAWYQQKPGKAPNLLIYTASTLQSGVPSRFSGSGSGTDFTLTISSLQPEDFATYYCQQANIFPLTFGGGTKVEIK
light: B3 light
notes: Ly361 HC (IgG1 mutated Fc)-Ly253 scFv VH-VL + Ly361 LC

binding result [1]: binds | binding result [2]: binds | binding result [3]: binds
B4: Ly482 (bispecific antibody, human IgG1, kappa)
heavy: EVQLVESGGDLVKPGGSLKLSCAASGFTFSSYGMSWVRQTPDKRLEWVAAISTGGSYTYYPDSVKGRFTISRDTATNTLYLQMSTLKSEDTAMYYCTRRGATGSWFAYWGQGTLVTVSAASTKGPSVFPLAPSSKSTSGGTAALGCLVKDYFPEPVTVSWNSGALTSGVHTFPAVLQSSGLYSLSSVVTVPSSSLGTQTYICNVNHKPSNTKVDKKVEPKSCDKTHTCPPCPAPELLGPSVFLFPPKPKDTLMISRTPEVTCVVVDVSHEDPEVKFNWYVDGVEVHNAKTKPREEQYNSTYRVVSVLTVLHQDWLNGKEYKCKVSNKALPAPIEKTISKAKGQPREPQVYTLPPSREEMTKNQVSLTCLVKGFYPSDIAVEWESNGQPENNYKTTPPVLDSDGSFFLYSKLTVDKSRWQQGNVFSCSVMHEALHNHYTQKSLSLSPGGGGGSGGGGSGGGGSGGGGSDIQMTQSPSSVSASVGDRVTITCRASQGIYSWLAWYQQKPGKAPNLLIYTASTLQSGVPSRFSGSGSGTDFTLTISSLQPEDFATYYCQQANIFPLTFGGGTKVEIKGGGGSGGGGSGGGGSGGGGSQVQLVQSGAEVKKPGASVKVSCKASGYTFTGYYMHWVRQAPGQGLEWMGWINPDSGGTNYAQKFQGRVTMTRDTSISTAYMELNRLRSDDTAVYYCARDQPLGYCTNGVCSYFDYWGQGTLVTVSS
light: B3 light
notes: Ly361 HC (IgG1 mutated Fc)-Ly253 scFv VL-VH + Ly361 LC

binding result [1]: binds | binding result [2]: binds | binding result [3]: binds
B5: Ly487 (bispecific antibody, human IgG1, kappa)
heavy: EVQLVESGGGLVKPGGSLKLSCAASGFTFSDSGMHWVRQAPEKGLEWITYINSGSSTIYYADSVKGRFTISRDNAKNTLFLQMTSLRSEDTAMYYCARGRGYAMDYWGQGTSVTVSSASTKGPSVFPLAPSSKSTSGGTAALGCLVKDYFPEPVTVSWNSGALTSGVHTFPAVLQSSGLYSLSSVVTVPSSSLGTQTYICNVNHKPSNTKVDKKVEPKSCDKTHTCPPCPAPELLGPSVFLFPPKPKDTLMISRTPEVTCVVVDVSHEDPEVKFNWYVDGVEVHNAKTKPREEQYNSTYRVVSVLTVLHQDWLNGKEYKCKVSNKALPAPIEKTISKAKGQPREPQVYTLPPSREEMTKNQVSLTCLVKGFYPSDIAVEWESNGQPENNYKTTPPVLDSDGSFFLYSKLTVDKSRWQQGNVFSCSVMHEALHNHYTQKSLSLSPGGGGGSGGGGSGGGGSGGGGSQVQLVESGGGLVQPGGSLKLSCATSGFNFNDYFMNWVRQASGKGLEWVGQIRNKNYNYATYYTESLEGRVTISRDDSKNTAYLQMNSLKTEDTAVYYCTSYYYDGFADYFDYWGQGTTVTVSSGGGGSGGGGSGGGGSGGGGSDIQMTQSPSSLSASVGDRVTITCKASQNIYIYLNWYQQKPGKAPKLLIYNTNNLQTGVPSRFSGSGSGTDFTLTISSLQPEDFATYYCLQHSSRRTFGGGTKVEIK
light: B6 light
notes: Ly366 HC (IgG1 mutated Fc)-TM740 scFv VH-VL + Ly366 LC

binding result [1]: binds | binding result [2]: binds | binding result [3]: binds
B9: Ly490 (bispecific antibody, human IgG1, kappa)
heavy: EVQLVESGGGLVKPGGSLKLSCAASGFTFSDSGMHWVRQAPEKGLEWITYINSGSSTIYYADSVKGRFTISRDNAKNTLFLQMTSLRSEDTAMYYCARGRGYAMDYWGQGTSVTVSSASTKGPSVFPLAPSSKSTSGGTAALGCLVKDYFPEPVTVSWNSGALTSGVHTFPAVLQSSGLYSLSSVVTVPSSSLGTQTYICNVNHKPSNTKVDKKVEPKSCDKTHTCPPCPAPELLGPSVFLFPPKPKDTLMISRTPEVTCVVVDVSHEDPEVKFNWYVDGVEVHNAKTKPREEQYNSTYRVVSVLTVLHQDWLNGKEYKCKVSNKALPAPIEKTISKAKGQPREPQVYTLPPSREEMTKNQVSLTCLVKGFYPSDIAVEWESNGQPENNYKTTPPVLDSDGSFFLYSKLTVDKSRWQQGNVFSCSVMHEALHNHYTQKSLSLSPGGGGGSGGGGSGGGGSGGGGSDIQMTQSPSSLSASVGDRVTITCLASEDISNDLAWYQQKPGKAPKLLIYFVDRLLDGVPSRFSGSGSGTDFTLTISSLQPEDFATYYCQQSYKYPPTFGQGTKLEIKGGGGSGGGGSGGGGSGGGGSEVQLVESGGGLVQPGGSLRLSCAASGFTFTNYGLHWVRQAPGKGLEWVSSISPSGGVTYYRDSVKGRFTISRDNSKNTLYLQMNSLRAEDTAVYYCAKPFLGWGGANWIAHWGQGTLVTVSS
light: B6 light
notes: Ly366 HC (IgG1 mutated Fc)-TM559 scFv VL-VH + Ly366 LC
